Experimental data as given in patent US20090202980A1 (CROSSBETA BIOSCIENCES B V, published 2009).

T1: tPA-F-EGF-GST (finger and EGF domains of human tPA with C-terminal GST tag) (human; Schistosoma japonicum, UniProt P00750 36-122)
T1 construct: domain: F-EGF; also called F-EGF-tPA; not shown: vector residues and thrombin cleavage site; Schistosoma japonicum glutathion-S-transferase (GST) tag
T1 sequence (looked up): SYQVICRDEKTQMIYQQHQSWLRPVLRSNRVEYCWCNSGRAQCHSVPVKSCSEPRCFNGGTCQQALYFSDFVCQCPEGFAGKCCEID

T2: tPA K1-GST (kringle 1 domain of human tPA with C-terminal GST tag) (human; Schistosoma japonicum, UniProt P00750 123-210)
T2 construct: domain: K1; not shown: vector residues and thrombin cleavage site; Schistosoma japonicum glutathion-S-transferase (GST) tag
T2 sequence (looked up): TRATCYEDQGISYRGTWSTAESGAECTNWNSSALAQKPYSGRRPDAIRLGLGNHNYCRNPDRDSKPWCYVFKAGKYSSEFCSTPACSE

T3: human factor XII (Hageman factor) (human, UniProt P00748 20-615)
T3 construct: also called FXII; fXII
T3 sequence (looked up): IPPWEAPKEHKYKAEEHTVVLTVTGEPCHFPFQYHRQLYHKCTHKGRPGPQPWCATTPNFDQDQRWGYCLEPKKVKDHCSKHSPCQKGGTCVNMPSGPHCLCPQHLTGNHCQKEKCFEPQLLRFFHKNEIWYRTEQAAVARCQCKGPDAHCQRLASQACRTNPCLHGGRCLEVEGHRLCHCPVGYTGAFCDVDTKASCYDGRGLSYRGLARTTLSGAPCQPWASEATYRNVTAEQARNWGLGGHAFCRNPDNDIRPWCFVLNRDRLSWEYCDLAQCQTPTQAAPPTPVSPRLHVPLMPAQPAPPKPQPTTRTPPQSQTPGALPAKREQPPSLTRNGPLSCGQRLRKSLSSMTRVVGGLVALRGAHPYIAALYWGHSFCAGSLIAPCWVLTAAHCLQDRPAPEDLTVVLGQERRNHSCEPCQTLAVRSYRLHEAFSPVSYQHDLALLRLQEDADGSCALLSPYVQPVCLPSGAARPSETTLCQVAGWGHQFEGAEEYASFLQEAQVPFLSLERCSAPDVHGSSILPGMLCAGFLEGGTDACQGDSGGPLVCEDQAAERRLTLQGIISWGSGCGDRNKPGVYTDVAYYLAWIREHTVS

B1: tPA EGF-GST (EGF domain of human tPA with C-terminal GST tag) (other, UniProt P00750 86-122, looked up)
chain: CSEPRCFNGGTCQQALYFSDFVCQCPEGFAGKCCEID
notes: domain: EGF; not shown: vector residues and thrombin cleavage site; Schistosoma japonicum glutathion-S-transferase (GST) tag
B2: human islet amyloid polypeptide, full length (fl-hIAPP) (peptide)
peptide: KCNTATCATQRLANFLVHSSNNFGAILSSTNVGSNTY
B3: mouse non-amyloidogenic IAPP(20-29) core (ΔmIAPP) (peptide)
peptide: SNNLGPVLPP
notes: Non-amyloid negative control peptide; also called mΔIAPP; MΔIAPP
B4: plasminogen (enzyme, UniProt P00747 20-810, looked up)
chain: EPLDDYVNTQGASLFSVTKKQLGAGSIEECAAKCEEDEEFTCRAFQYHSKEQQCVIMAENRKSSIIIRMRDVVLFEKKVYLSECKTGNGKNYRGTMSKTKNGITCQKWSSTSPHRPRFSPATHPSEGLEENYCRNPDNDPQGPWCYTTDPEKRYDYCDILECEEECMHCSGENYDGKISKTMSGLECQAWDSQSPHAHGYIPSKFPNKNLKKNYCRNPDRELRPWCFTTDPNKRWELCDIPRCTTPPPSSGPTYQCLKGTGENYRGNVAVTVSGHTCQHWSAQTPHTHNRTPENFPCKNLDENYCRNPDGKRAPWCHTTNSQVRWEYCKIPSCDSSPVSTEQLAPTAPPELTPVVQDCYHGDGQSYRGTSSTTTTGKKCQSWSSMTPHRHQKTPENYPNAGLTMNYCRNPDADKGPWCFTTDPSVRWEYCNLKKCSGTEASVVAPPPVVLLPDVETPSEEDCMFGNGKGYRGKRATTVTGTPCQDWAAQEPHRHSIFTPETNPRAGLEKNYCRNPDGDVGGPWCYTTNPRKLYDYCDVPQCAAPSFDCGKPQVEPKKCPGRVVGGCVAHPHSWPWQVSLRTRFGMHFCGGTLISPEWVLTAAHCLEKSPRPSSYKVILGAHQEVNLEPHVQEIEVSRLFLEPTRKDIALLKLSSPAVITDKVIPACLPSPNYVVADRTECFITGWGETQGTFGAGLLKEAQLPVIENKVCNRYEFLNGRVQSTELCAGHLAGGTDSCQGDSGGPLVCFEKDKYILQGVTSWGLGCARPNKPGVYVRVSRFVTWIEGVMRNN
notes: also called Plg

Columns and labels:
[1] = target: B2; assay: pull-down with IAPP fibrils, Western blot
Description: (§1) Conditioned medium was used for pull-down assays using Aβ and IAPP fibrils, followed by Western blot analyses.

[2] = target: T4, human amyloid-β peptide Aβ(1-40) (human); assay: pull-down with Aβ fibrils, Western blot
T4 construct: also called hAβ(1-40); amyloid-β(1-40)
Method: “Control,” medium before the pull-down, “Aβ,” washed amyloid Aβ pellet, after the pull-down, “Sup,” medium after extraction with Aβ. […] MΔIAPP was coated as non-amyloid negative control (Panel E). […] The same sections were incubated with Congo red (Panels I, K, and M) to locate amyloid deposits. Panels N and O: Pull-down assay with insoluble Aβ fibrils and finger domains. […] “Control,” medium before the pull-down, “Aβ,” washed amyloid Aβ pellet, after the pull-down, “Sup,” medium after extraction with Aβ.
as §1

[3] = target: T1, tPA-F-EGF-GST (finger and EGF domains …); assay: ELISA, 25 µg/ml peptide immobilized, excess εACA, anti-GST detection
[4] = target: T5, recombinant tissue-type plasminogen activator (tPA) (human, UniProt P00750 36-562); assay: ELISA on Exiqon plates
T5 construct: Commercial full-length recombinant tPA; also called Alteplase; Actilyse

[5] = target: T2, tPA K1-GST (kringle 1 domain of human …); assay: pull-down with IAPP fibrils, Western blot
Description: as §1

[6] = target: T6, Fn F4-5-GST (finger domains 4-5 of human fibronectin with C-terminal GST tag) (human; Schistosoma japonicum, UniProt P02751 182-276); assay: ELISA, immobilized peptide
T6 construct: domain: fibronectin type I domains 4-5; Printed in places as Fn F4-S-GST (a misprint of F4-5); also called Fn F4-S-GST; fibronectin F4-5; not shown: (G)RP vector residues and thrombin cleavage site; Schistosoma japonicum glutathion-S-transferase (GST) tag

[7] = target: T5, recombinant tissue-type plasminogen …; assay: ELISA, 25 µg/ml peptide immobilized on Exiqon plates
[8] = target: T1, tPA-F-EGF-GST (finger and EGF domains …); assay: ELISA, 25 µg/ml peptide immobilized, excess εACA
[9] = target: T5, recombinant tissue-type plasminogen …; assay: ELISA, 25 µg/ml peptide immobilized
[10] = target: T3, human factor XII (Hageman factor); assay: ELISA, coated peptide, FXII overlaid
Description: Ten μg of the peptides that contain cross-β structure, as well as the negative control peptide mΔIAPP and phosphate-buffered saline (PBS), were spotted in duplicate.
Wells were coated in triplicate. […] Ten μg of the peptides that contain cross-β structure, as well as the negative control peptide MΔIAPP and phosphate-buffered saline (PBS), were spotted in duplicate onto methanol-activated nitrocellulose.

[11] = target: T4, human amyloid-β peptide Aβ(1-40); assay: ELISA, Aβ coated, plasminogen overlaid

T4 sequence (peptide, as listed by the source): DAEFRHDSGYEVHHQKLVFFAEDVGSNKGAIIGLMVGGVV
T6 sequence (P02751 182-276, tags left off): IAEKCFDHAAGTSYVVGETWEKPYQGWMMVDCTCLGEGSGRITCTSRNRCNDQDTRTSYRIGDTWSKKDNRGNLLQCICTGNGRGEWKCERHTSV

Binder: B1
- binding result [1]: no binding
- binding result [2]: no binding

Binder: B2
- Kd [3]: 13 nM
- Kd [4]: 6 nM
- binding result [5]: no binding
- binding result [6]: binds
- Kd [7]: 2 nM

Binder: B3
- binding result [8]: no binding
- binding result [9]: no binding
- binding result [10]: no binding

Binder: B4
- binding result [11]: no binding
